Results from PMC4968207.

Experiments:
[1] = molecular target: Germline κI O18/O8 light chain variable domain (VL) (human)
[2] = molecular target: Germline κI O18/O8 light chain variable domain (VL) (human); remark: listed apart in the source

yield of de novo fibril formation (percent of the initial monomer in fibrils) [1]: 93.4%
t50 of de novo (nonseeded) ThT fibril formation of 20 µM κI, pH 2.0, 37 °C [2]: 266 h
Substance: Germline κI O18/O8 light chain variable domain (VL) (domain or fragment)
